Source: the DeepSol protein solubility set

Assay: soluble on expression in E. coli; label from the status in PepcDB or PDB records

Soluble on expression in E. coli, soluble:
MKCPYCGHPDTRVVDSRPSDEGMAIRRRRECPSCGRRFTTYERTQLEPLMVVKRDGRKEPFNPDKLLRGLLLACEKRPVSEEVLRRFAYTFEDQVSGPEITSEEIGLKALAFLKELDHVAYIRFASVYREFDSVERFIEEIRSLASLN
MQKFIIHKGIACPLEYANIDTDQIIPKQFLLAVSKQGFGKHLFHDLRYLDDKESVLNMDFNLNKKEYQNSSILVSFENFGSGSSREHAPWALVDYGIRAIIAPSFADIFKNNALGNGLLTIELAKDEVLEIVDELKKSQDKNIEISLLEKRVFFKDKIFSFDLDDFHRICLLEGLDNIALTLKHEAQIKAYEKNSKSFLV
MTNIEILENMLKLQQKLNDETNGLNWENGYTKEGKLISWRRCIYMECAELIDSFTWKHWKNISSLTNWENVRIEIVDIWHFILSLLLEEYRDKNNKDFKAIATEVNAVSVFQDFCKEEEYPNEGDIYGILNDIELIIHKCSGFGFNLGELLSTYFTLAIKCGLNLEILYKTYIGKNVLNIFRQNNGYKDGSYKKTWNGKEDNEVLAQILEQELDFDTIYKKLEECYKKA
MIHSLFLINCSGDIFLEKHWKSVVSQSVCDYFFEAQEKAADVENVPPVISTPHHYLISIYRDKLFFVSVIQTEVPPLFVIEFLHRVADTFQDYFGECSEAAIKDNVVIVYELLEEMLDNGFPLATESNILKELIKPPTILRSVVNSITGSSNVGDTLPTGQLSNIPWRRAGVKYTNNEAYFDVVEEIDAIIDKSGSTVFAEIQGVIDACIKLSGMPDLSLSFMNPRLLDDVSFHPCIRFKRWESERVLSFIPPDGNFRLISYRVSSQNLVAIPVYVKHSISFKENSSCGRFDITIGPKQNMGKTIEGITVTVHMPKVVLNMNLTPTQGSYTFDPVTKVLTWDVGKITPQKLPSLKGLVNLQSGAPKPEENPSLNIQFKIQQLAISGLKVNRLDMYGEKYKPFKGVKYVTKAGKFQVRT
MAKIGLFFGSDTGTTRKIAKQIKDMFDDEVMAKPLNVNRADVADFMAYDFLILGTPTLGDGQLPGLSANAASESWEEFLPRIADQDFSGKTIALFGLGDQVTYPLEFVNALFFLHEFFSDRGANVVGRWPAKGYGFEDSLAVVEGEFLGLALDQDNQAALTPERLKGWLSLIAADFGLVLPA
MAFICPEEIEAYAEEHSSELHPILEELVEFTYKNTDLPQMMVGRAEGNFLKMLVEISGAKRVLEIGTFTGFSALMMAQGLPEDGKLTTIEVNPEYAQMAKSFIERAPWGKKIEVIVGDARKVLEEFKKESFDFIFIDADKSSYPYYYEKCLELLKKGRLMAIDNALWEGKVLEPDDNRSKAIARMNEMIKEDPRVEKVLLTVRDGIFLVRKI

Soluble on expression in E. coli, not soluble:
MALLERILARDNLITALKRVEANQGAPGIDGVSTDQLRDDVRAHWSTIRAQLLAGTYRPAPVRRVEIPKPGGGTRQLGIPTVVDRLIQQAILQELTPIFDPDFSPSSFGFRPGRNAHDAVRQAQGYIQEGYRYVVDMDLEKFFDRVNHDILMSRVARKVKDKRVLKLIRAYLQAGVMIEGVKVQTEEGTPQGGPLSPLLANILLDDLDKELEKRGLKFCRYADDCNIYVKSLRAGQRVKQSIQRFLEKTLKLKVNEEKSAVDRPWKRAFLGFSFTPERKARIRLAPRSIQRLKQRIRQLTNPNWSISMPERIHRVNQYVMGWIGYFRLVETPSVLQTIEGWIRRRLRLCQWLQWKRVRTRIRELRALGLKETAVMEIANTRKGAWRTTKTPQLHQALGKTYWTAQGLKSLTQRYFELRQG
MGHHHHHHSHDDVIDKTLNYTRRKSNDIVYIGSLSKDKGVDILLELVKTFTKNGNDTIIHIVGKGLLYEKIFERIGEINKRVIYYGPQPLKRALQIASRASLGVVLTRPSYESLTTDPMKPKVYLAAHTPVILPEYFEISSYVNRFKAGMVVGKLKPSYILSKVKVALEDSNTLLKGAERLAKS
MSLKIMGFYSQVILPRLLDWSLSDPTLATYRQELLTDVTGEVLEIGFGTGLNLAYYPSHIHKITTVDVNPGMNTIAQKRIDDSGIKVQQLLLSGENLPMADNTFDSVVSTWTLCSIANVEQALQEVYRVLKPGGKFFFLEHGLSNKPNVQVWQNRLTPIQKVLADGCHLNRNIQQLVEQSFDHVELKRFTPENFPDLMAHFYKGCATKKSIEGHHHHHH
MAHHHHHHMAAGSAEEAVALMKSAEKHSQKKFFKRPDWDAAASEYERAARIYTHLEDTNRATDAWRKASGAHQNAENNFFAARAMESLAVFLTEQSRKGMADDTSLLNNAVESYCDASKLYAFNEMFDRQADCLKKAAEIINPTKTIVTGLPATEAGSSQVKQRMQQVVGLFREGVSVLEEHIEDKPVVAVQLSELYRNWMLTHLHNGDVKGAVEVLEEQLGIRADPHKKGVFERLAQPHNSAKAGLEITVLCLSCGDDVWARQEMNKLRGVPGFSTSNEEATANALISSFEERDEEQLRAAMKNQTLQFITIDISRMSRKLKIQFSAPQRTNMTSSSLPNPSLPNEQQQGEEQQEADIDPEEDIR
MGSDKIHHHHHHMNNNQTRVLITAIGTMNCTTIISELKKAEEVFYVIGADINGKYSIANSNEVDEFFQFPSVLHDREGYVQYLLNFCKEHNVEVFFCVVDEEVEVVAKHKEDFNAIGITLCLANIDAIITCHNKNLFAEWSEKNIAKYCIKRYENITDVNNDNFPIFIKPVEGRASIGCRKIENMEELWKYASVWDNYIAQEYVTGEIVSVDIVRNRKTEQFEVVQKLELLRNSNGCGIAVEIVDIPEIRQLCCIIADIFNLNGVINAEFFITNKGLKIIEINPRLPAGIEYSCMAGLDVVLNALRIARGEACIFKDIKIGAHYAKRYETYEIK
MAHHHHHHMGKVKKQANHAIKKILMKEKSLAMKKKREAESYHETPESNTTTQATKDYAAVLFRKALVTQAAPTRTAHFLSYNTALGPPYRIWLDTNFINFSMQNKIDIVQGLMDCLLAKVIPCICDCVFAELEKLGKKFRIALKLARDKRFERLTCDSKYADDCVVRTVTQHPIYIVATCDQELKRRLRKVPGVPIMYIAKHRYTIERLPEAYGAPE
MGSDKIHHHHHHMTEATKTDFSKLNVYQKLAYVRQKAPYIQKSKRGQQYSYVGSSDVLSALNTVINQVGLILKPEIVAHQVRESQDEVWKADKVKKEPVAKKRTTYFTELELMMTWINIHNPSEIVACSWYSQGVDIEGEKGVGKALTYAEKYFLLKFFNIATDDDDPDKYQKEQLKNTTITERQIDMLNASISRVAELAGQEFEAVKSLAINDSDLNPKKAFEEYSAYDYGVISKLLAKWINFYESRQKVQEDKK
MGSDKIHHHHHHMKLSRLKRKHKRVISVGKIAEQFWCEMKVELKLLYDIKPSNALVRKGKRIHDEISGKASLPRPKNFIDWLGGQIYFTNLSIESFLKSGLGREVFLVTKVDGDGWRWYLSGSIDEIRKKGGRTQVVERKTRLREEVPENESHKVQGLLYHLMLDEARRQKVSRNVKRAYGVVERAAISKEFSQAVGMTERNVKAMLRTLDSKLPMIPELDEEVVVIYESQKTGERIGEVRFKAQREEIERILQFSREYWAGEREALKTRENWKCRFCEVRKYCL
MANIEIRQESPSAFYIKVHETDNVAIIVNDHGLKAGTRFPDGLELTEHIPQGHKVALTDIPAHGEIIRYGEVIGYAVRDIPRGSWIDESLVELPKAPPLNTLPLATKVPEPLPPLEGYTFEGYRNADGSVGTKNLLGITTSVHCVAGVVDYVVKVIERDLLPKYPNVDGVVGLNHLYGCGVAINAPAAVVPIRTIHNIALNPNFGGEVMVIGLGCEKLQPERLLEGTEDVPAIAVESASIVRLQDEQHVGFKSMVDDILRVAERHLTKLNQRQRETCPASELVVGMQCGGSDAFSGVTANPAVGYASDLLVRCGATVMFSEVTEVRDAIHLLTPRAINEAVGKRLLDEMAWYDNYLDMGKTDRSANPSPGNKKGGLANVVEKALGSIAKSGKSAIVEVLSPGQRPTKRGLIYAATPASDFVCGTQQVASGITVQVFTTGRGTPYGLMAVPVIKMATRTELANRWYDLMDINAGTIATGEETIEDVGWKLFHFILDVASGRKKTFSDQWGLHNQLAVFNPAPVT
MGKALIIGCGGVASVAVHKCVQNSEVFEEICIASRTKSKCDALKAKLDGGKTKITTAQVDANNVDELIALIEEVKPDVVMNLALPYQDLTIMDACLATKTNYLDTANYEPEDTAKFEYKWQWDYRERFEKAGITALLGSGFDPGVTGVFSAYALKHHFDEIEYIDILDCNAGDHGYPFATNFNPEINIREVSANGRYWENGEWVETNPMEIKRVYNFPEVGEKDMYLLYHEELESLAVNIPGIKRIRFFMTFSESYLTHLKCLENVGMTSIEPIEFEGKEIIPLQFLKAVLPDPASLGPRTKGKTNIGCIFKGKKDGKDKTYYLYNVCDHEECYKEVGSQAVSYTTGVPAMIGAMMLMTGKWNKPGVYNIEEFDPDPFMEALNKWGLPWKEDHNPQLVDSDPIKETELVR
MGSDKIHHHHHHMMQGFLLQTQSIRDEDLIVRVLTKNQLKTLYRFYGKRHSVLNVGRKIDFEEENDDKFLPKLRNILHLGYIWEREMERLFFWQRFCALLFRHLEGVHSLDSVYFDTLDDGANKLAKQHPLRVILEMYATLLNFEGRLQSYNSCFLCDAKLERSVALAQGFILAHPSCLKAKSLNLEKIQAFFRTQSTIDLETEEVEELWRTLNLGF
MAHHHHHHMDEYDYNYATYDIDNFTNNFEDNLINYNQIDFINDNAEINNYSNEYYAYDEDLVEENVSEKRIHNKVLLSNDNEFDNNLINISNEIKTENSNNDTSLLKKRKIINDILLNIKKKMKKNDTLCIICLQNEKKYTFTCCYEYYCSLECFKKHDQQKCRNQNKNEPKISGSHNINMDDIKNSNHQKYEDTYYYQNEEDINKKQNDKVIENTIKLDNENKKNEINNINDMDTTCSNFPNNNLSTSLLNNDNNIPNNNENSESSDDYTDDYDMLTEEQKKKLKEDHTLKILLKNNYVREVFKQFTLSNDKIGYLSHYINDPTIVQVIDHIMKTIDDT
MTVRVGDPELVLDPYDYDFHEDPYPYYRRLRDEAPLYRNEERNFWAVSRHHDVLQGFRDSTALSNAYGVSLDPSSRTSEAYRVMSMLAMDDPAHLRMRTLVSKGFTPRRIRELEPQVLELARIHLDSALQTESFDFVAEFAGKLPMDVISELIGVPDTDRARIRALADAVLHREDGVADVPPPAMAASIELMRYYADLIAEFRRRPANNLTSALLAAELDGDRLSDQEIMAFLFLMVIAGNETTTKLLANAVYWAAHHPGQLARVFADHSRIPMWVEETLRYDTSSQILARTVAHDLTLYDTTIPEGEVLLLLPGSANRDDRVFDDPDDYRIGREIGCKLVSFGSGAHFCLGAHLARMEARVALGALLRRIRNYEVDDDNVVRVHSSNVRGFAHLPISVQAR
MTTLTLAELATITGGELFGDPTALVSAVAPMDKAQLGHVTFLSNPKYSKHLGDCKATVIMVKTSERELCPSNALVVADPYVAFAKVAQALDSTPSPAHGIAPSAVIAEDAKLGHNVSIGANAVIESGVQLGDNVVIGAGCFIGKQARLGDNTKLWANVTIYHKVEIGSDCLIQSGTVIGADGFGYANERGEWIKIPQLGSVRIGDRVEIGACTTIDRGALDDTVIEDNVIIDNQLQIAHNVHIGYGSALAGGTVIAGSTRIGKYCIIGGASVINGHIEIADGVTITGMGMVMRSIEEKGMYSSGIPLQTNKEWRKTAARVHRIDDMHKRLKALEKLLEQSDTVQPDNSQAE
MGSDKIHHHHHHMIGKFFASINLSDVAAMAGIPISFMTAYSISPEIEISFLEDIESGIMKVLKMYDVDFIGGDLKEGMDLILTGIAIGKQKKTLTRKRSDIGRKQMVAYTNKLGRAASGYIFYKSGYDSVEGINMMLGITPRLEEARIISEYGAKFMMDLSDGLYSSLNQMKADYGVGFKIVEDEVVYDDSARKAAEISGASVYDIACGYGGDYELLFTVPEENYRDFAQAMESNNIEVHFIGETWEGENIVFDGKTWTKMKDEGYEHFRPKPQLGEIR
